Laboratory results from the supplement of paper PMC11865577.

How the values were obtained:
Test in all cases: pull-down binding Z-score (relative to library population); higher = stronger binding
[1] = system: TO-3-N3-2 (biotin conjugate); details: RNA library: Library-2
Outline: (§1)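 Streptavidin beads bearing 100 pmol of a biotin-conjugated small molecule were incubated for 60 min at 25 °C with 1 μg of heat-folded, Cy5- or Cy3-end-labelled RNA library in phosphate/NaCl/KCl buffer. Hot SDS eluted the RNA that stayed bound after three washes, and this RNA was hybridised for 20 h at 55.5 °C to a DNA barcode microarray. Binding was expressed as a Z-score against the library mean and standard deviation, after subtraction of a beads-only signal and trimmed averaging of barcoded replicate probes.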

[2] = system: TO-3-N3 (biotin conjugate); details: RNA library: Library-2
Outline: as §1

TO-N3 (biotin conjugate) = details: RNA library: Library-2
Outline: as §1

[3] = system: TO-N3-2 (biotin conjugate); details: RNA library: Library-2
Outline: as §1

[4] = system: G-clamp-N3 (biotin conjugate); details: RNA library: Library-1 (pre-miRNA loops + repeats)
Outline: as §1

Sequence	pull-down binding Z-score [1]	pull-down binding Z-score [2]	pull-down binding Z-score (TO-N3 (biotin conjugate))	pull-down binding Z-score [3]	pull-down binding Z-score [4]
UCCUCCAUGCUUGGAAAAUGCAGGGAGGA [hsa-mir-764]	-0.61	-0.857	-0.987	-1.01	0.669
UUCUAGUCCCUAUUAGACUAGAA [hsa-mir-5681a]	-0.506	-0.543	-1	-1.08	-0.692
UUUAGAAAAGAGAAUUCCAAA [hsa-mir-1252]	-0.206	-0.294	-0.315	-0.676	-1.48
GGGCCCCAAGACUCGGGGUUU [hsa-mir-4651]	-0.00221	0.633	0.65	0.197	-0.146
CAUGCAGCAUGCUUGUCUG [hsa-mir-767]	-0.377	-0.275	-0.247	0.0549	-0.359
UGGACUGUGUACCAAUUUCCA [hsa-mir-194-1]	-0.379	-0.134	-0.21	-0.471	0.055
UGUUCAGUGGGAUUUGGAGA [hsa-mir-8061]	0.152	0.542	0.645	0.449	-0.118
CCCUUGUCUUCCCAGAG [hsa-mir-4739]	-0.41	-0.28	-0.358	-0.0951	-1.22
UCGCCUAGGGCUCUGAGCAGGGCA [hsa-mir-211]	0.463	1.36	1.72	1.47	1.4
GCGCGGGAAAGUUCGGGAACGCGCG [hsa-mir-4479]	0.246	0.386	0.854	1.72	0.488
UCAGGCUUUAAUGUUUGAAGUAAUGUCAGU [hsa-mir-6874]	0.146	0.511	0.555	0.228	0.286
GUCAGUCCCAAUCUGAAUCCCACCAAAAUAGGUGGUAGAGGGUUGC [hsa-mir-4290]	0.249	-0.204	0.0867	0.752	-1.14
CUGUGCUGUCUCUGAGCACCG [hsa-mir-6827]	-0.348	0.0475	0.322	0.586	0.0113
AUCAGCAGAGACAUGAGGUGAUCAAAAACCUUUUUUCAAAGCAGUGGG [hsa-mir-4300]	0.276	0.48	0.796	0.438	-0.911
CCAUUUACUUGAACCUUUAGGAGUGA [hsa-mir-489]	-0.05	0.389	0.319	0.625	-0.68
AGACUCUGGAUUUUACACUUGGAGUG [hsa-mir-887]	-0.196	-0.461	-0.207	-0.0223	-0.423
UGAGCAGGGUCCACACCAAGUCGUGUUCA [hsa-mir-27a]	0.465	0.869	1.14	1.09	-0.575
GGAUCCCAGAUCAAACCAGGCCC [hsa-mir-331]	-0.114	-0.36	-0.177	0.63	-0.859
CUGUUUGUUGUCUGAGAAAAAACA [hsa-mir-520g_520h]	-0.125	-0.638	-0.598	-0.229	1.11

Sequence	pull-down binding Z-score [1]	pull-down binding Z-score [2]	pull-down binding Z-score (TO-N3 (biotin conjugate))	pull-down binding Z-score [3]	pull-down binding Z-score [4]
GGCAGUGGUUCUAAAAGCUGUC [hsa-mir-3618]	-0.198	0.861	0.603	0.117	0.498
UUUGCCGUUGCUUUUAAUGGUAAA [hsa-mir-548as]	-0.381	-0.291	-0.571	-1.31	-0.134
AAGCUCUUGCAGUAGGUUU [hsa-mir-1206]	-0.358	-0.604	-0.46	-0.369	0.242
GUUGCUUAGAUUACAUGUAAC [hsa-mir-890]	-0.214	-0.632	-0.579	0.419	-0.226
GGCUGGGGUCACUGACUCUGCUUCCCCUGCC [hsa-mir-6799]	-0.0439	-0.14	-0.0831	0.62	-0.448
AGAAAAUUUUUCUCCAAAGUUUUCU [hsa-mir-4659b]	-0.443	-0.634	-1.06	-1.66	-0.123
CAAUAGUAAAAAGACAACCUGUUG [hsa-mir-3133]	0.0706	-0.559	-0.651	-0.486	0.427
CUUGCGGGGCCUUCGCCGCACACAAG [hsa-mir-99b]	-0.148	0.198	0.328	0.595	1.51
UCCCAGGCCCUUCCUCCAAUACUGGGA [hsa-mir-4666b]	-0.0987	-0.252	-0.383	-0.446	-0.809
GAAAAAUCCCUGUUAACUUUC [hsa-mir-6833]	0.174	-0.143	-0.225	0.133	-0.686
AGAAGGCCUAUGGUGAUUUGCAUUCUU [hsa-mir-6875]	0.226	-0.099	-0.072	-0.105	0.997
AGUGAAAUAAAGGUCCAUCUCCUGCCUAUUUAUUACUUUGCU [hsa-mir-1243]	-0.112	-0.671	-0.718	-0.5	-1.12
CUGGCCAUCAGUGUGGGCUAAC [hsa-mir-6732]	-0.117	-0.0637	0.33	0.569	-0.237
CGUAGGCGUUAUGAUUUCUGACCUAUG [hsa-mir-379]	-0.261	-0.513	0.0365	0.473	-0.994
CUGAACCCGUGGGUGAGGAGUGCAG [hsa-mir-4690]	0.0142	0.367	0.515	0.925	0.824
AGGCAUGGGUGGCU [hsa-mir-8085]	0.062	0.237	0.428	0.625	0.379
GGGCCUGGGUUUCUGAACAC [hsa-mir-196a-1]	0.334	0.328	0.611	0.762	0.486
CAUGCAUGUGUCUAGAAAUAUGUUUU [hsa-mir-507]	0.0237	-0.147	0.0527	0.104	0.0271
